Patent publication US6846640B2, “Time-resolved fluorescence assay for the detection of multimeric forms of A-beta 1-40” (Pharmacia & Upjohn Company, priority 2002, dated 2005)

Columns and labels:
β-amyloid 1-40 = target: T1, β-amyloid 1-40 (Homo sapiens, UniProt P05067); test: TRF aggregation assay for β-amyloid polypeptide aggregation; type: biochemical; settings: 50 ug/ml β-amyloid, 24 uM test compound, 2% DMSO, 37° C. for 24 hrs
T1 construct: Beta-amyloid 1-40 (Aβ) and biotin-labeled β-amyloid 1-40 peptides were purchased from Biosource; purchased Biosource (Camarillo, Calif.)
T1 sequence (P05067 672-711 limits assumed): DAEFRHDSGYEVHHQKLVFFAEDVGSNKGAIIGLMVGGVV
Method: Beta-amyloid 1-40 (Aβ) and biotin-labeled β-amyloid 1-40 peptides were purchased from Biosource (Camarillo, Calif.). β-amyloid and biotinylated amyloid stock solutions, diluted in 0.1% acetic acid and corrected for 80% peptide content, were diluted to 83 μg/ml and 42 μg/ml, respectively, in reaction buffer (Dulbecco's PBS pH 7.4, 0.02% Tween 20). An equal mixture of the two β-amyloid products was then brought to a final concentration of 62.5 μg/ml total β-amyloid, giving a final 2:1 ratio of unbiotinylated to biotinylated Aβ polypeptide. When analyzing aggregation in the presence of test compound, 5 ul of diluted test compound (120 uM in 10% DMSO) was added to each well being analyzed in a 384-well polystyrene plate (Nunc). Test compounds are added over a range of concentrations. Twenty microliters of the β-amyloid reaction mixture was dispensed into each well of the 384 well plate, giving the final assay conditions as 24 uM test compound, 2% DMSO, and 50 ug/ml β-amyloid in a final volume of 25 uL. Plates were then sealed with foil sealers (Corning), and incubated at 37° C. for 24 hrs. […] Plates were washed with reaction buffer and 75 uL of DELFIA Enhancement solution (Wallac) was added to each well and the plates read on TRF capable plate reader (excitation at 337 run and emission at 620 nm).

β amyloid = β amyloid (Homo sapiens, UniProt P05067); test: β-amyloid aggregation ELISA protocol (Howlett et al.); type: biochemical; settings: Aβ incubated overnight, 6E10 antibody
Sequence of β amyloid (P05067 672-711 limits assumed): as above
Method: For the β-amyloid aggregation ELISA protocol (Howlett et al., supra), 96 uL diluted β amyloid solution (51 μg/ml) is added to a 96-well polystyrene plate in the presence of and absence of 2 μL of an aggregation inhibitor test compound diluted in DMSO. The Aβ is incubated overnight to allow for aggregation and an aliquot transferred to another 96-well polystyrene plate, precoated with anti-Aβ antibody (6E10, Senetek, Napa, Calif.) overnight, washed, and blocked with Dulbecco's PBS/1% BSA solution. […] The secondary, biotinylated antibody was bound with 200 μL Eu^3+-streptavidin (100 ng/ml) in DELFIA assay buffer, the excess washed off, and the plate developed in DELFIA enhancement solution and read on a TRF plate reader as outlined above.

| Compound | prevents Aβ aggregation (β-amyloid 1-40) [%] | inhibition of Aβ aggregation (β amyloid) [%] |
| --- | --- | --- |
| QKLVFF [QKLVFF peptide] | 44 | – |
| CO[C@H]1/C=C/O[C@@]2(C)Oc3c(C)c(O)c4c(O)c(c(/C=N/N5CCN(C)CC5)c(O)c4c3C2=O)NC(=O)/C(C)=C\C=C\[C@H](C)[C@H](O)[C@@H](C)[C@@H](O)[C@@H](C)[C@H](OC(C)=O)[C@@H]1C [rifampicin] | – | ~30 |
